The results in this text go back to IntAct's records for PubMed 16814718.

B1: Recombination protein 107 (Saccharomyces cerevisiae), P21651 (parent)
chain: MVARGRTDEISTDVSEANSEHSLMITETSSPFRSIFSHSGKVANAGALEESDKQILEWAGKLELESMELRENSDKLIKVLNENSKTLCKSLNKFNQLLEQDAATNGNVKTLIKDLASQIENQLDKVSTAMLSKGDEKKTKSDSSYRQVLVEEISRYNSKITRHVTNKQHETEKSMRCTQEMLFNVGSQLEDVHKVLLSLSKDMHSLQTRQTALEMAFREKADHAYDRPDVSLNGTTLLHDMDEAHDKQRKKSVPPPRMMVTRSMKRRRSSSPTLSTSQNHNSEDNDDASHRLKRAARTIIPWEELRPDTLESEL
partner: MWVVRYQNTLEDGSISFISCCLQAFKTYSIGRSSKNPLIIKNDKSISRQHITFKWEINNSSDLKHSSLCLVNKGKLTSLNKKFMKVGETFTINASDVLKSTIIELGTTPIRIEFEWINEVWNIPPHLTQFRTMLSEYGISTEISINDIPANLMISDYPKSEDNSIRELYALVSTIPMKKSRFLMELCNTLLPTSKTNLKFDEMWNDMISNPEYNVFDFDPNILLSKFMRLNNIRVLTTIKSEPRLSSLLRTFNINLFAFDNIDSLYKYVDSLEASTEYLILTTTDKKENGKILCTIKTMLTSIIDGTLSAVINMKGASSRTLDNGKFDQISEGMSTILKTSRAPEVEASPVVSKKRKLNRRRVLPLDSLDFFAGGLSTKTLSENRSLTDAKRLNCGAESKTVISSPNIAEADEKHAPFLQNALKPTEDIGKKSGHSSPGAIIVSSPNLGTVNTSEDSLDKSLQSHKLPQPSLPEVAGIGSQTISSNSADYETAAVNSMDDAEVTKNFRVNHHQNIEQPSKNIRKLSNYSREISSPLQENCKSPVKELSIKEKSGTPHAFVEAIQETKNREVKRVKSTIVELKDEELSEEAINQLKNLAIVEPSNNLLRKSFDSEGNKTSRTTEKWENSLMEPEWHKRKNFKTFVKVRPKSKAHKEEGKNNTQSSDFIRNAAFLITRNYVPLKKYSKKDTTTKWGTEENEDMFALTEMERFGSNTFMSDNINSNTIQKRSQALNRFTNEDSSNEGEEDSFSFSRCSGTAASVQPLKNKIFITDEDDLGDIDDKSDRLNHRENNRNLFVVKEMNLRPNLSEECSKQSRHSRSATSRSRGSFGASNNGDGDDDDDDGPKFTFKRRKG
B2: Recombination protein 107 (Saccharomyces cerevisiae), P21651 (parent)
chain: B1 chain
partner: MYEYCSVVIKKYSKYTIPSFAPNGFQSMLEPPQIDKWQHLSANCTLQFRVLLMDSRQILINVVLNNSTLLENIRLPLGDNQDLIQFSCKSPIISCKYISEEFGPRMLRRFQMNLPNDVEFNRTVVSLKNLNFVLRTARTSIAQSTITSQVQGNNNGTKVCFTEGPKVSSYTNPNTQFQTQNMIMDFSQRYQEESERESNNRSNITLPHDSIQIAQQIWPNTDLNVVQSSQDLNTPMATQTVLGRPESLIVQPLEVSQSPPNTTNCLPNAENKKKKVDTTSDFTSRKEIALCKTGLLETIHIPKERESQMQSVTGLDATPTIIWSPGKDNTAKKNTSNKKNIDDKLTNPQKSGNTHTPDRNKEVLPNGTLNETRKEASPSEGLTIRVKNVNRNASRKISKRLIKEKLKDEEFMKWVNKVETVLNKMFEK
B3: Recombination protein 107 (Saccharomyces cerevisiae), P21651 (parent)
chain: B1 chain
partner: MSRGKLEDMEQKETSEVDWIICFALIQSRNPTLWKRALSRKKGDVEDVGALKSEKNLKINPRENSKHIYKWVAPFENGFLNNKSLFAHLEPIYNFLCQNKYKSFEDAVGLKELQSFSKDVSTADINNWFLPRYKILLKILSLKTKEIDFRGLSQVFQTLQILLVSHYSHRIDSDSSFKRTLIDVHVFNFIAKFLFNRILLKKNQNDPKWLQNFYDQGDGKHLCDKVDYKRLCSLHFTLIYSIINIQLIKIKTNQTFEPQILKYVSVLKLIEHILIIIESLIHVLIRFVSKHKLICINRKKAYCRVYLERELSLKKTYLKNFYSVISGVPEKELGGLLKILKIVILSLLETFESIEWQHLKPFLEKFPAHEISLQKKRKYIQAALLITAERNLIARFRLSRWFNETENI

In one experiment the parent is B1. The conditions noted are these: with xrs2_yeast XRS2, P33301.
On to S271A, for which the “effect of a mutation on the interaction” value is listed as “decreasing interaction strength”.

With S30A;S271A, the “effect of a mutation on the interaction” value was “disrupting interaction strength”.

On to S30A, for which the “effect of a mutation on the interaction” value was “disrupting interaction strength”.

In another experiment the parent is B2. The conditions noted are these: with re114_yeast REC114, P32841.
Take S30A: the “effect of a mutation on the interaction” value is “disrupting interaction strength”.

Turning to S30A;S271A, the “effect of a mutation on the interaction” value was “disrupting interaction strength”.

On to S271A, for which the “effect of a mutation on the interaction” value is “with no effect”.

In another experiment the parent is B3. The note with it: with mei4_yeast MEI4, P29467.
S271A: the “effect of a mutation on the interaction” value is “with no effect”.

Turning to S30A, the “effect of a mutation on the interaction” value was “decreasing interaction strength”.

For S30A;S271A, the “effect of a mutation on the interaction” value is recorded as “decreasing interaction strength”.
